In article PMC9287376:

Experiments:
Details in all cases: natural protein; chains chain; remark: other sources report otherwise
[1] = biological target: T1, wild-type trigger factor, P0A850; assay: 0.06 M GdnHCl
T1 chain: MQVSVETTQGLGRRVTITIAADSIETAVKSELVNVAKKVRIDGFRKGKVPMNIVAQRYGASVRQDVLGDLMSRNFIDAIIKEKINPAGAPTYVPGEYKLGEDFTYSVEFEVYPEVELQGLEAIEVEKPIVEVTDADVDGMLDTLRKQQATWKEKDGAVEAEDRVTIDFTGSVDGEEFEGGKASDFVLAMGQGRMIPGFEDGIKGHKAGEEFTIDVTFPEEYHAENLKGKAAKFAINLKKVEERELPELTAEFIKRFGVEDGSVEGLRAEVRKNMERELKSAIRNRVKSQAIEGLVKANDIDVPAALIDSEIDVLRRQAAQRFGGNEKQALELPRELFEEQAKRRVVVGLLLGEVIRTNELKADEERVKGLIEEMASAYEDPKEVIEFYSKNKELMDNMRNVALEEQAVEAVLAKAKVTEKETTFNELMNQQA

[2] = biological target: T1, wild-type trigger factor, P0A850; assay: 0.26 M GdnHCl
[3] = biological target: T1, wild-type trigger factor, P0A850; assay: native buffer, no denaturant

B1: wild-type trigger factor, P0A850 1-432 (protein)
chain: T1 chain
With B1 as the binder, how does the Kd [1] read?
The Kd was 29 µM.

What about the Kd [2] of the same binder?
The Kd was 76 µM.

And the Kd [3]?
Its Kd is 18.4 µM.
